Columns and labels:
Test in all cases: purified protein
Settings in all cases: untreated (not acid-activated) enzyme, 50 mM TEA/HCl pH 7.0, 30°C
[1] = substrate: CSCC[C@H](N)C(=O)O
[2] = substrate: N[C@@H](Cc1ccccc1)C(=O)O
[3] = substrate: CC(C)C[C@H](N)C(=O)O
[4] = substrate: NC(=O)CC[C@H](N)C(=O)O
[5] = substrate: COC(=O)[C@@H](N)CC(C)C

B1: 9-hcLAAO4 (9His-hcLAAO4) (Hebeloma cylindrosporum) (protein)
chain: ADTTSVPFDAESRDQIFQHHARSVISGYTNTLGEKNISVPSSPPGGERVGILGAGIGGLYSALILQSLDVPFEIIEASNRVGGRLFTHKFPNGGKYDYYDVGAMRYPLPKSDDKGNYQPGVMQRVGQLFTYLGMHKQLIPYYFKSNKSPGFQYFNGVRARIGEGSSFDAPALGINSSLIDIGVTKIVNDAVGPFAQALFDDLQKHTTTGWDDMMKNDAYSTRSYFSFKYLPSPSFGLPSEHFSTRVINWLETFDKSTGWYDRGLTETVLEAIAFGEVGDGEVDWRCIDGGSHVLPDTIAAFLHKKGGNAFVMNASVTAIGLENPNKEDSPMVVVAGGQKRKYSHVISTLPLPVLRTVDLKNSKLDIVQSNALRKLQYGPSIKIGILFKEPWWTTGQDKNGEKFDLVGGQSYTDLPIRTVVYPSYGVNTNAPSNTLIASYCWTNDAERMGSLIGTGKKTYEEQLEHLVLSNLAAVHNTDYQYLKDRLVDVHSWDWNHNPLTMGAFAFFGPGDFQDLYTSLNRPAANGKLHFAGEALSVRHAWVVGALDSAWRAVYNYLYVTDPAKLPKFFELWGKNAEWFEQPGDGKEPNSDNSLLEKFVRRTHGTVSV
Km [1]: 0.16 ± 0.10 mM
Vmax [1]: 5.98 µmol/min/mg
Km [2]: 0.07 ± 0.07 mM
Vmax [2]: 3.25 µmol/min/mg
Km [3]: 0.04 ± 0.04 mM
Vmax [3]: 7.67 µmol/min/mg
Km [4]: 0.51 ± 0.11 mM
Vmax [4]: 8.87 µmol/min/mg
Km [5]: 3.01 ± 0.68 mM
Vmax [5]: 8.41 µmol/min/mg

From publication PMC7568252, “Recombinant expression of an L‐amino acid oxidase from the fungus Hebeloma cylindrosporum in Pichia pastoris including fermentation” (MicrobiologyOpen, 2020)
